No end group written: not given here. fluorescein = fluorescein label at the amino-terminal end; Flu = fluorescein
T1: human AT1 receptor (Homo sapiens, UniProt P30556)
T1 construct: purchased NEN Life Science Products Inc., Boston, Mass; host or cells: Chinese hamster ovary (CHO) cells, purified membrane preparation
T1 sequence (P30556 1-359): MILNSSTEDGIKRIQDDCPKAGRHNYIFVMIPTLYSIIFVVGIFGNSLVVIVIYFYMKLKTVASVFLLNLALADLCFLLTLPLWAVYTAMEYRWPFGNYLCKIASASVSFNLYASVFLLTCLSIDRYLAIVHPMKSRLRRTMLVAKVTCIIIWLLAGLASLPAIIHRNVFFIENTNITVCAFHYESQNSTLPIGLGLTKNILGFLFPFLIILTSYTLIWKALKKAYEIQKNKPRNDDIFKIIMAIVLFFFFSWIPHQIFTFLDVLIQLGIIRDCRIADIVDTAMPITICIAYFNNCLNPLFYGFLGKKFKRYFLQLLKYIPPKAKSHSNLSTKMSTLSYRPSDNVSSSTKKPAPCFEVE

T2: Cloned human angiotensin II AT1 receptor (purified membrane preparation derived from CHO cells) (human, UniProt P30556 1-359)
T2 construct: whole, on cells; Used as a membrane preparation, not intact cells; also called human AT1 receptor
T2 sequence (looked up): T1 sequence (P30556 1-359)

B1: Mutant angiotensin II fragment containing the first five amino acid residues of wildtype AII, labeled with fluorescein at its amino-terminus [Flu-AII(1-5)] (peptide)
peptide: Flu-DRVYI
notes: Synthesized by AnaSpec; also called mutant Flu-AII(1-5); mutant Flu-AII

Legend:
human AT1 receptor = target: T1, human AT1 receptor; assay: Flu-AII:AT1 fluorescent intensity quenching binding assay; settings: 0.005, 0.01, 0.02 and 0.05 units AT1 receptor, 10 nM probe
[1] = target: T2, Cloned human angiotensin II AT1 …; assay: fluorescence intensity quenching assay in solution

| Molecule | binding to AT1 receptor (fluorescent intensity versus probe alone) (human AT1 receptor) | binding result [1] |
| --- | --- | --- |
| Flu-Asp-Arg-Val-Tyr-Ile (fluorescein-DRVYI) [Flu-AII(1-5)] | did not bind |  |
| B1 |  | no binding |

From patent US6645733B1, “Fluorescent intensity method for assaying binding between proteins or peptides” (Ingeneus Corporation, priority 1999, dated 2003)
